This passage reports stoichiometry N results from paper PMC4251995.

For test [1], the target named is Phosphorylated DesR wild type, full-length (Bacillus subtilis) (UniProt O34723). The experiment in a line: SEC. In general terms: Size exclusion chromatography separates by hydrodynamic size, large species first.
For test [2] the target is unchanged. The experiment in a line: SAXS.

For the substance “Phosphorylated DesR wild type, full-length (from UniProt O34723 1-199) (natural protein)”, the stoichiometry N in test [1] and in test [2] was 2 in each case.
